Source: the supplement of paper PMC9112550, “Optimization of the antimicrobial peptide Bac7 by deep mutational scanning” (BMC Biology, 2022)

Test system: Escherichia coli TOP10
Assay: shrunken log2 fold change of peptide-encoding DNA abundance (4.5 h post-induction vs induction); higher = less antimicrobial activity (less host growth inhibition)
Details: time post-induction: 4.5 h; library: site-saturation at positions 5, 18, 19, 20
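Further: peptides expressed intracellularly from a pBAD plasmid library in pooled LB shake-flask culture, induced with 0.3% L-arabinose, DNA abundance read by NGS, three biological replicates, DESeq2 with apeglm shrinkage.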

First: RRIRQRPPRLPRPRPRPTQPPRP
Second: RRIRLRPPRLPRPRPRPSKHPRP
The “shrunken log2 fold change” value of the first is higher: 0.356 for the first, -0.642 for the second.

Compared with RRIRYRPPRLPRPRPRPTNLPRP, RRIRCRPPRLPRPRPRPCCQPRP is higher in “shrunken log2 fold change” value: -0.661 for the first, -0.342 for the second.

First: RRIRLRPPRLPRPRPRPGQIPRP
Second: RRIRQRPPRLPRPRPRPTITPRP
The “shrunken log2 fold change” value of the first is higher: 0.207 for the first, -0.273 for the second.

RRIRYRPPRLPRPRPRPIWWPRP and RRIRERPPRLPRPRPRPHWDPRP are within 0.2 log units of each other in “shrunken log2 fold change” value: 0.136 for the first, -0.00134 for the second.

First: RRIRWRPPRLPRPRPRPWGWPRP
Second: RRIRARPPRLPRPRPRPFIIPRP
The “shrunken log2 fold change” value of the first is higher: 0.276 for the first, -0.264 for the second.

First: RRIRRRPPRLPRPRPRPIRFPRP
Second: RRIRVRPPRLPRPRPRPYMKPRP
The “shrunken log2 fold change” value of the first is higher: 0.0747 for the first, -1.04 for the second.

First: RRIRGRPPRLPRPRPRPSPWPRP
Second: RRIRKRPPRLPRPRPRPRKRPRP
The “shrunken log2 fold change” value of the first is lower: 0.392 for the first, 1.04 for the second.

First: RRIRGRPPRLPRPRPRPDCPPRP
Second: RRIRIRPPRLPRPRPRPMDNPRP
The “shrunken log2 fold change” value of the first is higher: 0.22 for the first, -0.096 for the second.

Compared with RRIRERPPRLPRPRPRPLPSPRP, RRIRSRPPRLPRPRPRPSYFPRP is lower in “shrunken log2 fold change” value: -0.0852 for the first, -0.687 for the second.

Going from RRIRWRPPRLPRPRPRPDCRPRP to RRIRIRPPRLPRPRPRPILLPRP, the “shrunken log2 fold change” value falls from 0.0695 to -0.266.

Going from RRIRYRPPRLPRPRPRPPDHPRP to RRIRCRPPRLPRPRPRPCYVPRP, the “shrunken log2 fold change” value falls from 0.0391 to -1.08.

RRIRWRPPRLPRPRPRPEWEPRP and RRIRIRPPRLPRPRPRPQFWPRP are within 0.2 log units of each other in “shrunken log2 fold change” value: 0.00016 for the first, 0.133 for the second.

Going from RRIRFRPPRLPRPRPRPDCMPRP to RRIRTRPPRLPRPRPRPHEWPRP, the “shrunken log2 fold change” value rises from -0.286 to 0.00742.

RRIRHRPPRLPRPRPRPDLCPRP and RRIRTRPPRLPRPRPRPCLFPRP are within 0.2 log units of each other in “shrunken log2 fold change” value: 0.00487 for the first, -0.16 for the second.

RRIRVRPPRLPRPRPRPLDEPRP and RRIRWRPPRLPRPRPRPWSPPRP are within 0.2 log units of each other in “shrunken log2 fold change” value: -0.0276 for the first, -0.0542 for the second.

First: RRIRARPPRLPRPRPRPVRSPRP
Second: RRIRKRPPRLPRPRPRPNLHPRP
The “shrunken log2 fold change” value of the first is higher: 0.345 for the first, -0.184 for the second.

RRIRWRPPRLPRPRPRPHQAPRP and RRIRLRPPRLPRPRPRPGCCPRP are within 0.2 log units of each other in “shrunken log2 fold change” value: 0.257 for the first, 0.387 for the second.

RRIRVRPPRLPRPRPRPVWFPRP and RRIRARPPRLPRPRPRPKMVPRP are within 0.2 log units of each other in “shrunken log2 fold change” value: -0.0288 for the first, 0.116 for the second.

RRIRFRPPRLPRPRPRPRTIPRP and RRIRIRPPRLPRPRPRPHGDPRP are within 0.2 log units of each other in “shrunken log2 fold change” value: -0.219 for the first, -0.125 for the second.

First: RRIRKRPPRLPRPRPRPMAKPRP
Second: RRIRWRPPRLPRPRPRPAGLPRP
The “shrunken log2 fold change” value of the first is higher: 0.545 for the first, 0.289 for the second.

First: RRIRWRPPRLPRPRPRPYNLPRP
Second: RRIRMRPPRLPRPRPRPEEIPRP
The “shrunken log2 fold change” value of the first is lower: -0.991 for the first, 0.0117 for the second.

RRIRLRPPRLPRPRPRPKDDPRP and RRIRLRPPRLPRPRPRPAEMPRP are within 0.2 log units of each other in “shrunken log2 fold change” value: -0.0117 for the first, -0.111 for the second.

RRIRWRPPRLPRPRPRPVLQPRP and RRIRARPPRLPRPRPRPHGPPRP are within 0.2 log units of each other in “shrunken log2 fold change” value: 0.177 for the first, 0.321 for the second.

Compared with RRIRIRPPRLPRPRPRPIYRPRP, RRIRSRPPRLPRPRPRPFAHPRP is higher in “shrunken log2 fold change” value: -0.191 for the first, 0.0573 for the second.

Compared with RRIRKRPPRLPRPRPRPSVHPRP, RRIRWRPPRLPRPRPRPEFCPRP is higher in “shrunken log2 fold change” value: -0.118 for the first, 0.335 for the second.

RRIRARPPRLPRPRPRPHFWPRP and RRIRERPPRLPRPRPRPTRMPRP are within 0.2 log units of each other in “shrunken log2 fold change” value: 0.23 for the first, 0.084 for the second.

RRIRWRPPRLPRPRPRPNVEPRP and RRIRWRPPRLPRPRPRPVYDPRP are within 0.2 log units of each other in “shrunken log2 fold change” value: -0.319 for the first, -0.15 for the second.

First: RRIRGRPPRLPRPRPRPLQQPRP
Second: RRIRMRPPRLPRPRPRPIQKPRP
The “shrunken log2 fold change” value of the first is higher: 0.28 for the first, 0.0394 for the second.

Going from RRIRLRPPRLPRPRPRPFFWPRP to RRIRRRPPRLPRPRPRPWSTPRP, the “shrunken log2 fold change” value falls from 0.296 to -0.0543.

RRIRARPPRLPRPRPRPYEVPRP and RRIRLRPPRLPRPRPRPNMWPRP are within 0.2 log units of each other in “shrunken log2 fold change” value: -0.0785 for the first, -0.235 for the second.

Compared with RRIRSRPPRLPRPRPRPIQLPRP, RRIRARPPRLPRPRPRPKDWPRP is higher in “shrunken log2 fold change” value: -0.238 for the first, 0.578 for the second.

RRIRARPPRLPRPRPRPPVYPRP and RRIRCRPPRLPRPRPRPNPAPRP are within 0.2 log units of each other in “shrunken log2 fold change” value: 0.0965 for the first, 0.101 for the second.

First: RRIRDRPPRLPRPRPRPPMEPRP
Second: RRIRARPPRLPRPRPRPFIGPRP
The “shrunken log2 fold change” value of the first is higher: -0.0667 for the first, -0.457 for the second.

Going from RRIRHRPPRLPRPRPRPKGRPRP to RRIRPRPPRLPRPRPRPQYYPRP, the “shrunken log2 fold change” value falls from 0.0526 to -0.422.

First: RRIRLRPPRLPRPRPRPKGVPRP
Second: RRIRRRPPRLPRPRPRPWTLPRP
The “shrunken log2 fold change” value of the first is higher: 0.0368 for the first, -0.195 for the second.

RRIRPRPPRLPRPRPRPRYGPRP and RRIRNRPPRLPRPRPRPGYPPRP are within 0.2 log units of each other in “shrunken log2 fold change” value: 0.00536 for the first, 0.0226 for the second.

First: RRIRDRPPRLPRPRPRPNVIPRP
Second: RRIRFRPPRLPRPRPRPVNWPRP
The “shrunken log2 fold change” value of the first is lower: -0.0253 for the first, 0.253 for the second.

First: RRIRHRPPRLPRPRPRPVGTPRP
Second: RRIRNRPPRLPRPRPRPGPDPRP
The “shrunken log2 fold change” value of the first is lower: 0.0773 for the first, 0.295 for the second.

Going from RRIRVRPPRLPRPRPRPCCWPRP to RRIRVRPPRLPRPRPRPYKMPRP, the “shrunken log2 fold change” value falls from -0.087 to -0.428.

Going from RRIRLRPPRLPRPRPRPDYQPRP to RRIRTRPPRLPRPRPRPCCGPRP, the “shrunken log2 fold change” value rises from -0.137 to 0.635.

First: RRIRWRPPRLPRPRPRPDFYPRP
Second: RRIRFRPPRLPRPRPRPPRPPRP
The “shrunken log2 fold change” value of the first is lower: -0.11 for the first, 0.905 for the second.

Compared with RRIRSRPPRLPRPRPRPIKIPRP, RRIRKRPPRLPRPRPRPIAPPRP is higher in “shrunken log2 fold change” value: -0.209 for the first, 0.718 for the second.

First: RRIRWRPPRLPRPRPRPAHVPRP
Second: RRIRRRPPRLPRPRPRPPWCPRP
The “shrunken log2 fold change” value of the first is lower: -0.0191 for the first, 0.294 for the second.

RRIRARPPRLPRPRPRPTCMPRP and RRIRARPPRLPRPRPRPPLLPRP are within 0.2 log units of each other in “shrunken log2 fold change” value: 0.407 for the first, 0.543 for the second.

RRIRQRPPRLPRPRPRPEFKPRP and RRIRFRPPRLPRPRPRPWESPRP are within 0.2 log units of each other in “shrunken log2 fold change” value: -0.0763 for the first, -0.037 for the second.

First: RRIRPRPPRLPRPRPRPWTLPRP
Second: RRIRCRPPRLPRPRPRPAKGPRP
The “shrunken log2 fold change” value of the first is higher: 0.104 for the first, -0.179 for the second.

RRIRHRPPRLPRPRPRPVHGPRP and RRIRRRPPRLPRPRPRPNVPPRP are within 0.2 log units of each other in “shrunken log2 fold change” value: 0.131 for the first, 0.032 for the second.

RRIRGRPPRLPRPRPRPTTYPRP and RRIRTRPPRLPRPRPRPLRDPRP are within 0.2 log units of each other in “shrunken log2 fold change” value: 0.214 for the first, 0.282 for the second.

First: RRIRIRPPRLPRPRPRPQPRPRP
Second: RRIRMRPPRLPRPRPRPEHFPRP
The “shrunken log2 fold change” value of the first is higher: 0.343 for the first, 0.0315 for the second.

Compared with RRIRQRPPRLPRPRPRPPAAPRP, RRIRSRPPRLPRPRPRPSWSPRP is lower in “shrunken log2 fold change” value: 0.778 for the first, -0.0102 for the second.

First: RRIRTRPPRLPRPRPRPGKMPRP
Second: RRIRFRPPRLPRPRPRPFWYPRP
The “shrunken log2 fold change” value of the first is higher: 0.181 for the first, -0.102 for the second.

Compared with RRIRLRPPRLPRPRPRPENYPRP, RRIRFRPPRLPRPRPRPPQMPRP is higher in “shrunken log2 fold change” value: -0.041 for the first, 0.333 for the second.

Compared with RRIRDRPPRLPRPRPRPEDPPRP, RRIRIRPPRLPRPRPRPKVEPRP is lower in “shrunken log2 fold change” value: 0.439 for the first, 0.195 for the second.

RRIRGRPPRLPRPRPRPLKMPRP and RRIRSRPPRLPRPRPRPTAPPRP are within 0.2 log units of each other in “shrunken log2 fold change” value: 0.27 for the first, 0.317 for the second.

Going from RRIRGRPPRLPRPRPRPPNPPRP to RRIRYRPPRLPRPRPRPQGNPRP, the “shrunken log2 fold change” value falls from 0.74 to -0.0344.

Compared with RRIRVRPPRLPRPRPRPPLYPRP, RRIRYRPPRLPRPRPRPCLMPRP is lower in “shrunken log2 fold change” value: -0.00849 for the first, -0.225 for the second.

Compared with RRIRSRPPRLPRPRPRPQGPPRP, RRIRYRPPRLPRPRPRPVALPRP is lower in “shrunken log2 fold change” value: -0.0522 for the first, -0.404 for the second.

RRIRMRPPRLPRPRPRPMDNPRP and RRIRRRPPRLPRPRPRPIEDPRP are within 0.2 log units of each other in “shrunken log2 fold change” value: 0.0672 for the first, -0.089 for the second.

First: RRIRKRPPRLPRPRPRPGDAPRP
Second: RRIRERPPRLPRPRPRPYTLPRP
The “shrunken log2 fold change” value of the first is higher: 0.571 for the first, -0.338 for the second.

RRIRLRPPRLPRPRPRPSKMPRP and RRIRPRPPRLPRPRPRPNFNPRP are within 0.2 log units of each other in “shrunken log2 fold change” value: -0.212 for the first, -0.273 for the second.

RRIRDRPPRLPRPRPRPMFMPRP and RRIRNRPPRLPRPRPRPSVLPRP are within 0.2 log units of each other in “shrunken log2 fold change” value: 0.169 for the first, 0.0978 for the second.

Going from RRIRARPPRLPRPRPRPMDEPRP to RRIRHRPPRLPRPRPRPHCNPRP, the “shrunken log2 fold change” value falls from 1.02 to -0.158.

For RRIRQRPPRLPRPRPRPCKVPRP, the “shrunken log2 fold change” value was -0.101.
